{"source": "paper PMC4058522", "about": "“Structural Basis for Phosphorylation-Dependent Recruitment of Tel2 to Hsp90 by Pih1” (Structure(London, England:1993), 2014)", "binders": {"B1": {"name": "Tah1p-Pih1p 187-344 complex (complex, yeast)", "chain 1": "MSQFEKQKEQGNSLFKQGLYREAVHCYDQLITAQPQNPVGYSNKAMALIKLGEYTQAIQMCQQGLRYTSTAEHVAIRSKLQYRLELAQGAVGSVQIPVVEVDELPEGYDRS", "chain 2": "HKIIEEEAGDPMSILRGRNDDGDDNNDPDDGTLPPLFPIENKISGAKIEEIDKNEIAHRNLKQAPAPAPAPHEQQEDVPEYEVKMKRFKGAAYKLRILIENKAPNSKPDRFSPSYNFAENILYINGKLSIPLPRDIVVNAADIKIFHIRKERTLYIYI", "notes": "Tah1, S. cerevisiae, full length; also called Tah1-Pih1-CS heterodimer"}, "B2": {"name": "human Spagh/RPAP3 120-395 (tandem TPR region) (domain or fragment, UniProt Q9H6T3 120-395, looked up)", "chain": "ESEEDGIHVDSQKALVLKEKGNKYFKQGKYDEAIDCYTKGMDADPYNPVLPTNRASAYFRLKKFAVAESDCNLAVALNRSYTKAYSRRGAARFALQKLEEAKKDYERVLELEPNNFEATNELRKISQALASKENSYPKEADIVIKSTEGERKQIEAQQNKQQAISEKDRGNGFFKEGKYERAIECYTRGIAADGANALLPANRAMAYLKIQKYEEAEKDCTQAILLDGSYSKAFARRGTARTFLGKLNEAKQDFETVLLLEPGNKQAVTELSKIKK", "notes": "Spagh/RPAP3, human, residues 120-395, tandem TPR region; GST fusion with a PreScission site; also called Spagh/RPAP3-TPR2 (label of the tandem region in the text); wild-type Spagh/RPAP3"}, "B3": {"name": "Spagh/RPAP3 120-395 N321E (domain or fragment, human, UniProt Q9H6T3 120-395, looked up)", "chain": "ESEEDGIHVDSQKALVLKEKGNKYFKQGKYDEAIDCYTKGMDADPYNPVLPTNRASAYFRLKKFAVAESDCNLAVALNRSYTKAYSRRGAARFALQKLEEAKKDYERVLELEPNNFEATNELRKISQALASKENSYPKEADIVIKSTEGERKQIEAQQNKQQAISEKDRGNGFFKEGKYERAIECYTRGIAADGANALLPAERAMAYLKIQKYEEAEKDCTQAILLDGSYSKAFARRGTARTFLGKLNEAKQDFETVLLLEPGNKQAVTELSKIKK", "notes": "Spagh/RPAP3, human, residues 120-395, N321E in TPR2; also called N321E-TPR2 mutant"}, "B4": {"name": "Spagh/RPAP3 120-395 N172E (domain or fragment, human, UniProt Q9H6T3 120-395, looked up)", "chain": "ESEEDGIHVDSQKALVLKEKGNKYFKQGKYDEAIDCYTKGMDADPYNPVLPTERASAYFRLKKFAVAESDCNLAVALNRSYTKAYSRRGAARFALQKLEEAKKDYERVLELEPNNFEATNELRKISQALASKENSYPKEADIVIKSTEGERKQIEAQQNKQQAISEKDRGNGFFKEGKYERAIECYTRGIAADGANALLPANRAMAYLKIQKYEEAEKDCTQAILLDGSYSKAFARRGTARTFLGKLNEAKQDFETVLLLEPGNKQAVTELSKIKK", "notes": "Spagh/RPAP3, human, residues 120-395, N172E in TPR1; also called N172E-TPR1 mutant"}, "B5": {"name": "dimeric C-terminal domain of Hsp90 (Hsp90 600-709) (domain or fragment)", "chain": "not shown", "notes": "Hsp90 residues 600-709, dimeric C-terminal domain; also called cHsp90; C-Hsp90"}}, "conditions_in_all_cases": "both partners purified", "key": {"[1]": {"target": "B5", "experiment": "SEC; calibrated gel-filtration column; cHsp90, Tah1-Pih1p 187-344 and their mixture"}, "[2]": {"target": "T1, mouse Pih1 PIH domain 1-200 (His-mPih1 1-200) (mouse, UniProt Q9CQJ2 1-200)", "T1 construct": "Pih1 (Pih1D1), mouse, residues 1-200; SeMet protein was used for the crystal structure 4CKT; The ITC methods say only 'Pih1' / 'mPIH domain'; also called mPIH domain; Pih1D1", "T1 sequence (Q9CQJ2 1-200)": "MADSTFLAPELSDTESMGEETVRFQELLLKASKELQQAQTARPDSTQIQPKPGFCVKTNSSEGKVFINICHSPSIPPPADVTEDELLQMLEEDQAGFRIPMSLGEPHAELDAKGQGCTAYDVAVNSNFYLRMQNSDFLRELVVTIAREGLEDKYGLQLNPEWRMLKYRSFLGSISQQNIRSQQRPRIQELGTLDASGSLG", "experiment": "ITC; peptides at 350 μM injected into 30 μM Pih1 (mPIH domain) at 30°C; 20 mM Tris pH 7.5, 5 mM NaCl"}, "His6-Hsp90β": {"target": "T2, His6-Hsp90β (human, UniProt P08238 1-724)", "T2 construct": "Hsp90 beta, human; also called His-tagged Hsp90; human Hsp90β", "experiment": "pull-down; His6-Hsp90β as bait, Spagh/RPAP3 120-395 tandem TPR segment (wild type and mutants) as prey"}, "[3]": {"target": "B2", "experiment": "ITC; 2 mM … injected into 80 μM Spagh/RPAP3 120-395; 10 mM Tris pH 7.5, 5 mM NaCl; 10°C; two site fitting"}, "[4]": {"target": "B2", "experiment": "ITC; 2 mM … injected into 80 μM Spagh/RPAP3 120-395; 10 mM Tris pH 7.5, 5 mM NaCl; 30°C; two site fitting"}, "[5]": {"target": "B4", "experiment": "ITC; 2 mM … injected into 80 μM Spagh/RPAP3 120-395 mutants (N172E, N321E, N172E-N321E); 10 mM Tris pH 7.5, 5 mM NaCl; temperature not given; two site model"}, "[6]": {"target": "B3", "experiment": "ITC; 2 mM … injected into 80 μM Spagh/RPAP3 120-395 mutants (N172E, N321E, N172E-N321E); 10 mM Tris pH 7.5, 5 mM NaCl; temperature not given; two site model"}, "[7]": {"target": "T3, Tah1 (yeast, full-length) (yeast, UniProt P25638 1-111)", "T3 construct": "Tah1, S. cerevisiae, full length (C-terminal residue Ser 111); Selenomethionine-labelled Tah1 was used for the crystal structure; also called Tah1p; SeMetTah1", "T3 sequence (looked up)": "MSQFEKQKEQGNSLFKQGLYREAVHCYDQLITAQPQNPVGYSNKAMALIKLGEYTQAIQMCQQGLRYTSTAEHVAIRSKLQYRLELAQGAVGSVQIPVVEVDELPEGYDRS", "experiment": "SEC; calibrated gel-filtration column; cHsp90, Tah1-Pih1p 187-344 and their mixture"}, "[8]": {"target": "B1", "experiment": "SEC; calibrated gel-filtration column; cHsp90, Tah1-Pih1p 187-344 and their mixture"}, "FLAG-tagged Tah1": {"target": "T4, FLAG-tagged Tah1 (yeast, UniProt P25638 1-111)", "T4 construct": "Tah1p, S. cerevisiae; also called FLAG-Tah1; Flag-Tah1p", "T4 sequence": "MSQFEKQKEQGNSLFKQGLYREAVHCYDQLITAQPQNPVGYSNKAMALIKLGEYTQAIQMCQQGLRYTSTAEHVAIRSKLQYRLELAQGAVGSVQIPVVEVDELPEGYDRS", "experiment": "co-IP; 70 μM Flag-Tah1p, Hsp90 600-709 and increasing concentrations of Cpr6 in 20 mM HEPES pH 7.5, 150 mM NaCl, 10% glycerol, 0.5% Igepal, 2 mM EDTA; Anti-Flag M2 magnetic beads; SDS-PAGE"}, "[9]": {"target": "T5, Cpr6 (monomeric TPR-domain Hsp90 cochaperone) (UniProt P53691 1-371)", "T5 construct": "Cpr6, TPR-domain Hsp90 cochaperone", "T5 sequence (P53691 whole entry)": "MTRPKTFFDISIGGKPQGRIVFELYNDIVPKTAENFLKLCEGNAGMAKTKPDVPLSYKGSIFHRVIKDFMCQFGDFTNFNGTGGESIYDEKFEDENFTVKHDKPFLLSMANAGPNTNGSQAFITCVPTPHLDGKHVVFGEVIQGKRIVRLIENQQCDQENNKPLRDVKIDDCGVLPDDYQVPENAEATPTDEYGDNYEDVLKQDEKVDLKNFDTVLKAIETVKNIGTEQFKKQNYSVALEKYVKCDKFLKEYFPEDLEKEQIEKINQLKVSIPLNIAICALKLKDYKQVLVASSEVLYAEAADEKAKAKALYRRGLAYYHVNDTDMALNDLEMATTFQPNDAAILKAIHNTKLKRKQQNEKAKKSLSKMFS", "experiment": "co-IP; 70 μM Flag-Tah1p, Hsp90 600-709 and increasing concentrations of Cpr6 in 20 mM HEPES pH 7.5, 150 mM NaCl, 10% glycerol, 0.5% Igepal, 2 mM EDTA; Anti-Flag M2 magnetic beads; SDS-PAGE"}}, "note": "Square brackets hold non-standard residues; d marks the D form. Ends that are not written are not given here. pT = C[C@@H](OP(=O)(O)O)[C@H](N)C(=O)O; pS = N[C@@H](COP(=O)(O)O)C(=O)O"}
{"binder": "B1", "values": [{"measurement": "stoichiometry N", "setting": "[1]", "value": "1 Tah1-Pih1 heterodimer per cHsp90 chain (2:2:2)"}]}
{"binder": "MAND[pS]DDSI (Mre11, phosphorylation site 554-MANDpSDDSIS-563 found among sites in human proteins)", "note": "[Mre11 phosphopeptide MANDpSDDSI]", "values": [{"measurement": "Kd", "setting": "[2]", "value": 6.4, "unit": "µM"}]}
{"binder": "QGSDSELD[pT]DDEF (also called phosphothreonine Tel2 peptide)", "note": "[Tel2 peptide with pSer492 replaced by phosphothreonine]", "values": [{"measurement": "Kd", "setting": "[2]", "value": 45.7, "unit": "µM"}]}
{"binder": "B2", "values": [{"measurement": "binding result", "setting": "His6-Hsp90β", "value": "binds"}]}
{"binder": "B3", "values": [{"measurement": "binding result", "setting": "His6-Hsp90β", "value": "binds"}]}
{"binder": "B4", "values": [{"measurement": "binding result", "setting": "His6-Hsp90β", "value": "binds"}]}
{"binder": "DDTSRMEEVD (human Hsp90 C-terminal peptide; also called C-terminal Hsp90 peptide)", "note": "[human Hsp90 C-terminal peptide DDTSRMEEVD]", "values": [{"measurement": "KD of the moderate-affinity site (two site fitting)", "setting": "[3]", "value": 24, "unit": "µM"}, {"measurement": "KD of the tight site (two site fitting)", "setting": "[3]", "value": 1, "unit": "µM"}, {"measurement": "KD of the moderate-affinity site (two site fitting)", "setting": "[4]", "value": 23.6, "unit": "µM"}, {"measurement": "KD of the tight site (two site fitting)", "setting": "[4]", "value": 1.49, "unit": "µM"}, {"measurement": "stoichiometry N", "setting": "[4]", "value": "~2", "unit": "peptides per Spagh/RPAP3"}, {"measurement": "KD of the TPR1 site (mutated; two site model)", "setting": "[5]", "value": "~231", "unit": "µM"}, {"measurement": "KD of the TPR1 site (non-mutated; two site model)", "setting": "[6]", "value": 0.94, "unit": "µM"}]}
{"binder": "B5", "values": [{"measurement": "binding result", "setting": "[7]", "value": "binds"}, {"measurement": "binding result", "setting": "[8]", "value": "binds"}, {"measurement": "binding result", "setting": "FLAG-tagged Tah1", "value": "binds"}, {"measurement": "binding result", "setting": "[9]", "value": "binds"}]}
